This is an account of results in patent publication US20210032353A1 (NATIONAL HEALTH RESEARCH INSTITUTES, published 2021).

For assay [1], the target named is T1, VEGFR3 IgD5 (individual recombinant immunoglobin-like domain 5 of VEGFR3) (UniProt P35916 422-552, limits assumed).
T1 construct: domain: IgD5
T1 sequence (looked up): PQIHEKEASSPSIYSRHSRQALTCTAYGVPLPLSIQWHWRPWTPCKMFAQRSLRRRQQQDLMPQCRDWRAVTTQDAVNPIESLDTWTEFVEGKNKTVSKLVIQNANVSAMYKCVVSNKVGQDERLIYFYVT
Nature of the assay: cell-based competitive ELISA: R2C9-11 absorbed with the soluble domain, then bound to 293T/VEGFR3 cells, OD405. How it is done: (§1) Panel A, Cell-based competitive. ELISA. HEK293T cells expressing VEGFR3 (293T/VEGFR3) were coated in 96-well plates. The optimal concentrations of R2C7-1 and R2C9-11 mAbs were determined as described previously (data now shown). The optimal concentrations of R2C7-1 and R2C9-11 mAbs were absorbed with the designed doses of the individual immunoglobin-like domains of VEGFR3 (R3-IgDs) antigens, as indicated. The bound antibodies were immune-probed with secondary antibody conjugated with HRP, visualized by addition of ABTS, and measured at OD₄₀₅ using a microplate reader (SpectraMax). Data are represented as means±S.D. of percentage of isotype control (CTL) in triplicate. The epitope locations of R2C7-1 and R2C9-11 on the VEGFR3 antigen are indicated by the black lines spanning IgD6 in the schematics. Panel B, Native gel electrophoresis. The whole extracellular domain (R3-IgD1-7), domain 3-4 (R3-IgD3-4) and domain 6-7 (R3-IgD6-7) were constructed, expressed in the E. coli, and purified using the anti-Myc affinity purification system. The purity and molecular weight of each recombinant protein were visualized with a standard Western blot using anti-Myc antibody as probe (left). The binding of R2C7-1 and R2C9-11 to the VEGFR3 truncated antigens was evaluated with native gel electrophoresis to confirm the epitopes of R2C7-1 and R2C9-11 mAbs (middle and right, respectively).
(§2) The same methodology was adopted to define the epitopes of the antibodies on VEGFR3. To determine the optimal concentrations of the antibodies for VEGFR3, HEK293T/VEGFR3 transfectants were used as targets (data not shown). Subsequently, the antibodies with optimal concentrations were absorbed with individual recombinant extracellular domains of VEGFR3 (R3-IgDs) for competing the binding epitopes. Similarly, their major epitopes were both located in IgD6, but not in IgD7, of VEGFR3. To conform this finding, Western blotting analysis of different recombinant IgD proteins was carried out using native gel electrophoresis.
(ELISA stands for enzyme-linked immunosorbent assay.)

Assay [2] deals with T2, R3-IgD4 (human, UniProt P35916).
T2 construct: recombinant fragment; also called immunoglobin-like domain 4 of VEGFR3
T2 sequence (receptor fragment, looked up): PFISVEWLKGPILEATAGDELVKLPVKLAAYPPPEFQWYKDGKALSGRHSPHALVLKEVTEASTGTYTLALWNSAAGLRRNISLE
The description is as above. How it is done:
as §1, §2

For assay [3], the target named is T3, R3-IgD7 (human, UniProt P35916).
T3 construct: recombinant fragment; also called immunoglobin-like domain 7 of VEGFR3
T3 sequence (receptor fragment, looked up): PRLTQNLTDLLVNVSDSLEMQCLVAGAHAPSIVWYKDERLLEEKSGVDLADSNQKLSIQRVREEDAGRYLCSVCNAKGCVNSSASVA
Described as above. On the procedure: as §1, §2

Assay [4] has as its target T1, VEGFR3 IgD5 (individual recombinant …). As to the kind of experiment: cell-based competitive ELISA: R2C7-1 absorbed with the soluble domain, then bound to 293T/VEGFR3 cells, OD405. On the procedure: as §1, §2

B1: R2C9-11 monoclonal antibody (antibody, V domains shown)
VH: QVQLQQPGAELVKPGASVKLSCKASGYTFTSYWMHWVKQRPGQGLEWIGEINPSNGRTNYNEKFKSKATLTVDKSSSTAYMQLSSLTSEDSAVYYCANLYFDVWGAGTTVTVSS
VL: DIVMTQSPSSLSVSAGEKVTMSCKSSQNLLNSGNQKYYLAWYQQKPGQPPKLLIYGASIRESGVPDRFIGSGSGTDFTLTISSVQAEDLAVYFCQSDHSYPYTFGGGTKLEIK
notes: Mouse monoclonal antibody purified from hybridoma supernatant; An IgG2a isotype antibody served as its control; also called R2C9-11 mAb
As for B1, the binding result in assay [1], in assay [2] and in assay [3] was “no binding (tested: 10 (unit not printed on the sheet))” in each case.

B2: R2C7-1 monoclonal antibody (antibody, V domains shown)
VH: EVQLQQSGPELVKPGASVKISCKASGYSFTDYFINWVIQRHGKSLEWVGRINPYNGGSFYNQKFKDKATLTVDKSSNIAHMELRSLASEDSAIYYCARSGGNGYDYWGQGTTLTVSS
VL: DIVMTQAAPSVPVIPGESVSISCRSSKSLLHSNGNTYLYWFLQRPGQSPQLLIYRMSNLASGVPDRFSGSGSGTAFTLRISRVEAEDVGVYYCMQHLEYPYTFGGGTKVEIK
notes: Mouse monoclonal antibody purified from hybridoma supernatant; An IgG2a isotype antibody served as its control; also called R2C7-1 mAb
For B2, the binding result in assay [4] is listed as “no binding (tested: 10 (unit not printed on the sheet))”.
